In the assay the target is IMCC25003 KatG (bifunctional catalase-peroxidase of strain IMCC25003) ('Ca. Planktophila rubra' IMCC25003 (acI-A1 tribe, freshwater Actinobacteria)). The experiment in a line: SEC.

In general, stoichiometry N refers to the number of molecules, sites or subunits per partner or assembly. As to “IMCC25003 KatG (bifunctional catalase-peroxidase of strain IMCC25003) (enzyme)”, the stoichiometry N stood at 2.
